What was measured:
[1] = target: H4K20C nucleosome labelled with Alexa Fluor 488 (Xenopus laevis); test: TIRF microscopy on micropatterned nucleosomes, competition; as a6 with 1 µM CF660R-labelled LA 430–585 and 0 to 1500 µM unlabelled peptide LA 572–588; ratio of lamin to nucleosome fluorescence fitted with a four-parameter dose–response Hill–Langmuir equation
[2] = target: lamin A peptide LA 572-588;histone octamer (H2A, H2B, H3, H4) (;Xenopus laevis) (UniProt P02545+P84233+P62799+P06897+P02281); test: competition (TIRF); conditions: EMSA: 150 mM NaCl, 20 mM HEPES pH 7.5, 1 mM DTT, 4 C, 1 h, 6% native PAGE; TIRF buffer not in the material
[3] = target: lamin A tail LA 430-585;histone octamer (H2A, H2B, H3, H4) (Xenopus laevis) (UniProt P84233+P62799+P06897+P02281); test: EMSA; conditions: 0.05 uM Alexa 488 nucleosome; LA 3.1-400 uM; EMSA: 150 mM NaCl, 20 mM HEPES pH 7.5, 1 mM DTT, 4 C, 1 h, 6% native PAGE; TIRF buffer not in the material
[4] = target: H4K20C nucleosome labelled with Alexa Fluor 488 (Xenopus laevis); test: native gel or EMSA; 4 °C; 150 mM NaCl, 20 mM HEPES pH 7.5, 1 mM DTT; 0.05 µM Alexa 488-labeled nucleosomes with 3.1 µM to 400 µM lamin fragment, 1 h; 6% native PAGE
[5] = target: lamin A 430–585 C570A, labelled with CF660R (UniProt P02545); test: fluorescence correlation spectroscopy (FCS); 500 pM CF660R-labelled LA 430–585 C570A, diffusion time against H2A–H2B concentration; 20 mM HEPES pH 8, 150 mM NaCl, 0.01% Tween20, 2 mM ascorbic acid and methyl viologen; one-to-one binding model

synthetic peptide comprising amino acids 572–588 of lamin A
EC50 [1]: 5 µM

197 bp 601 nucleosome
IC50 [2]: 5 µM | Kd [3]: 48 µM

lamin A 430–585, from the 6xHis-SUMO plasmid, tag cleaved (from UniProt P02545 430-585) (domain or fragment)
Kd [4]: 48 µM

H2A–H2B heterodimer (Xenopus laevis) (from UniProt P06897 11-120; P02281 1-126) (complex)
Kd [5]: 12 µM

From paper PMC12527912
